Data published in patent US20150165067A1 (Eli Lilly, published 2015).
Values belong to the binder of their own block, whether it stands above or below them.

Assays:
[1] = target: human FGFR3 S249C, endogenous on UMUC-14 bladder tumor cells (human) (UniProt P22607); test: cell-based or functional assay
[2] = target: human FGFR3 on RT-112 bladder tumor cells (wild type and FGFR3-TACC3 fusion receptors) (human) (UniProt P22607); test: cell-based or functional assay
[3] = target: FGFR3-TACC3 fusion on RT-4 bladder tumor cells (TACC3 exon-4) (human, UniProt Q9Y6A5 140-838, limits assumed); test: cell-based or functional assay
[4] = target: human FGFR3 Y373C, endogenous on KMS-11 multiple myeloma cells (human) (UniProt P22607); test: flow cytometry, 15 µg/mL Alexa488-labeled Antibody 1 on KMS-11 cells, quantified with Quantum Simply Cellular beads
[5] = target: human FGFR3 on RT-112 bladder tumor cells (wild type and FGFR3-TACC3 fusion receptors) (human) (UniProt P22607); test: flow cytometry, 15 µg/mL Alexa488-labeled Antibody 1 on RT-112 cells, quantified with Quantum Simply Cellular beads
[6] = target: human FGFR3 S249C, endogenous on UMUC-14 bladder tumor cells (human) (UniProt P22607); test: flow cytometry, 15 µg/mL Alexa488-labeled Antibody 1 on UMUC-14 cells, quantified with Quantum Simply Cellular beads
[7] = target: human FGFR3 wild type, endogenous on tumor cell lines (BFTC-905, KU-19-19, UMUC-3) (human) (UniProt P22607); test: flow cytometry, 15 µg/mL Alexa488-labeled Antibody 1 on BFTC-905 cells, quantified with Quantum Simply Cellular beads
[8] = target: human FGFR3 wild type, endogenous on tumor cell lines (BFTC-905, KU-19-19, UMUC-3) (human) (UniProt P22607); test: flow cytometry, 15 µg/mL Alexa488-labeled Antibody 1 on KU-19-19 cells, quantified with Quantum Simply Cellular beads
[9] = target: human FGFR3 wild type, endogenous on tumor cell lines (BFTC-905, KU-19-19, UMUC-3) (human, UniProt P22607 23-806); test: cell-based or functional assay
[10] = target: T1, human FGFR3 on RT-112 bladder tumor cells (wild type and FGFR3-TACC3 fusion receptors) (human, UniProt P22607 23-806); test: cell-based or functional assay
[11] = target: T1, human FGFR3 on RT-112 bladder tumor …; test: cell-based or functional assay; remark: listed apart in the source
[12] = target: human FGFR3 on Kato-III gastric tumor cells (human, UniProt P22607 23-806); test: cell-based or functional assay
[13] = target: T2, human FGFR3(IIIb) WT on BaF3 cells (human, UniProt P22607 23-808); test: cell-based or functional assay
[14] = target: T3, huFGFR3(IIIb), immobilized receptor (human, UniProt P22607-2 23-377, limits assumed); test: SPR, Biacore T200, 25 C, huFGFR3(IIIb) amine-coupled on CM5 chip, Conjugate 1 as analyte, 1:1 model, n=3
T3 construct: Amine-coupled to a CM5 chip; also called human FGFR3(IIIb)
T3 sequence (looked up): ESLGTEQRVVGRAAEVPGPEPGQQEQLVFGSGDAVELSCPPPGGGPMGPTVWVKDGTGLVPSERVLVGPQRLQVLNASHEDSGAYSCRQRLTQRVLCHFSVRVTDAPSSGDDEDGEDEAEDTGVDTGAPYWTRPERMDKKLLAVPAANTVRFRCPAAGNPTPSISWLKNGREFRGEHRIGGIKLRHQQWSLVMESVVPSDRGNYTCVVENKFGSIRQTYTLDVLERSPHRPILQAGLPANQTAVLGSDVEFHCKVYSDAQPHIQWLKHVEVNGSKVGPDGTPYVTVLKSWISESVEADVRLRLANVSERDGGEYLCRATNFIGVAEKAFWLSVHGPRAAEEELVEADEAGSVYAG
Description: Use a CM5 chip containing immobilized receptor huFGFR3(IIIb) (generated using standard NHS-EDC amine coupling) on 2 flow cells. Prepare samples of Conjugate 1 by 2 fold serial dilutions starting at 60 nM, 6 dilutions total into running buffer. Immobilize receptor at 2.5 μg/mL (55 RU). Each analysis cycle consists of: (1) sample injection at 30 μL/min with 180 sec contact time, (2) dissociation by injection of buffer for 900 sec at 30 μL/min, (3) regeneration in a 0.5% solution of SDS contact time 30 sec at a flow rate of 40 μL/min. Process data using standard double-referencing and fit to a 1:1 binding model using Biacore® 2000 Evaluation software, version 4.1, to determine the association rate (kₒₙ, M⁻¹s⁻¹ units), dissociation rate (koff, s⁻¹ units), and Rmax (RU units). The equilibrium dissociation constant (KD) is calculated from the relationship of KD=koff/kₒₙ. KD is in molar units.

human FGFR3(IIIb)-Fc = target: T4, human FGFR3(IIIb)-Fc (human, UniProt P22607-2 23-377, limits assumed); test: MSD electrochemiluminescence plate assay: blocking of ruthenium-labeled FGF1 (1 ug/mL, with heparin) binding to coated human FGFR3(IIIb)-Fc
T4 construct: Coated on the MSD plate; not shown: Fc part
T4 sequence (looked up): T3 sequence (looked up)

[15] = target: human FGFR3(IIIb) S249C on BaF3 cells (human, UniProt P22607 23-808); test: cell-based or functional assay
[16] = target: human FGFR3(IIIb) G372C on BaF3 cells (human, UniProt P22607 23-808); test: cell-based or functional assay
[17] = target: human FGFR3(IIIb) Y375C on BaF3 cells (human, UniProt P22607 23-808); test: cell-based or functional assay
[18] = target: T2, human FGFR3(IIIb) WT on BaF3 cells; test: cell-based or functional assay; remark: listed apart in the source
[19] = target: human FGFR3(IIIb) R248C on BaF3 cells (human, UniProt P22607 23-808); test: cell-based or functional assay
[20] = target: T3, huFGFR3(IIIb), immobilized receptor; test: SPR (Biacore); the sentence names no antigen or format, the section is on immobilized huFGFR3(IIIb); naked Antibody 1, not Conjugate 1

internalization in UMUC-14 cells, cell-associated fluorescence by flow cytometry over 48 h (fold over control) [1]: > 9
internalization in RT-112 cells, cell-associated fluorescence by flow cytometry over 48 h (fold over background) [2]: 7
internalization in RT-4 cells, cell-associated fluorescence by flow cytometry over 48 h [3]: ~7 fold over background
FGFR3 cell surface expression (ABC) [4]: 120000 ABC
FGFR3 cell surface expression (ABC) [5]: 16000 ABC
FGFR3 cell surface expression (ABC) [6]: 27000 ABC
FGFR3 cell surface expression (ABC) [7]: 11000 ABC
FGFR3 cell surface expression (ABC) [8]: < 4000 ABC
B1: Antibody 1-Alexa488 (antibody, human IgG1, lambda, V domains shown)
VH: EVQLVQSGAEVKKPGASVKVSCKASGYMFTSYGISWVRQAPGQGLEWMGWVSTYNGDTNYAQKFQGRVTVTTDTSTSTAYMELRSLRSEDTAVYYCARVLGYYDSIDGYYYGMDVWGQGTTVTVSS
VL: QSVLTQPPSLSVAPGKTATFTCGGNNIGDKSVHWYRQKPGQAPVLVMYLDTERPSGIPERMSGSNFGNTATLTITRVEAGDEADYYCQVWDSGSDHVVFGGGTKLTVLG
modifications: Alexa488 label (sites not given)

Kd [14]: 0.823 nM
koff [14]: 0.000187 s⁻¹
kon [14]: 227000 M⁻¹ s⁻¹
IC50 (human FGFR3(IIIb)-Fc): 3.6 nM
B2: Conjugate 1 (antibody, human IgG1, lambda, V domains shown)
VH: B1 VH
VL: B1 VL
modifications: DM4 attached through the sulfo-SPDB linker to available lysine residues (positions not given); DAR 3.5 ± 0.5 for the whole antibody
notes: also called Antibody 1-sulfo-SPDB-DM4; the conjugate of the present invention
Cytotoxicity Conjugate 1 IC50, BFTC-905 (bladder) cells, Cell Titer-Glo, 96 h [9]: 2.7 nM
Cytotoxicity Conjugate 1 IC50, RT-112 (bladder) cells, Cell Titer-Glo, 96 h [10]: 1.3 nM
cytotoxicity IC50 (nM), RT112 cells [11]: 2.1 nM
cytotoxicity IC50 (nM), Kato-III cells [12]: 5.4 nM
cytotoxicity IC50 (nM), transfected Baf3-FGFR3(IIIb) cells [13]: 2.5 nM

IC50 for neutralizing FGF1 (51.6 nM)-induced 3H-thymidine incorporation in BaF3 cells [15]: 2.17 nM
IC50 for neutralizing FGF9 (34.72 nM)-induced 3H-thymidine incorporation in BaF3 cells [15]: 0.46 nM
IC50 for neutralizing FGF1 (51.6 nM)-induced 3H-thymidine incorporation in BaF3 cells [16]: 4.81 nM
IC50 for neutralizing FGF1 (51.6 nM)-induced 3H-thymidine incorporation in BaF3 cells [17]: 8.77 nM
IC50 for neutralizing FGF9 (34.72 nM)-induced 3H-thymidine incorporation in BaF3 cells [17]: 1.42 nM
IC50 for neutralizing FGF1 (51.6 nM)-induced 3H-thymidine incorporation in BaF3 cells [18]: 4.2 nM
IC50 for neutralizing FGF9 (34.72 nM)-induced 3H-thymidine incorporation in BaF3 cells [18]: 0.4 nM
IC50 for neutralizing FGF1 (51.6 nM)-induced 3H-thymidine incorporation in BaF3 cells [19]: 1.32 nM
Kd [20]: 0.13 nM
B3: Antibody 1 (antibody, human IgG1, lambda, V domains shown)
VH: B1 VH
VL: B1 VL
notes: Human monoclonal antibody with a lambda light chain; also called naked Antibody 1; anti-FGFR3 antibody
